Our source for the EC50 values is patent US20230045873A1.

In general, EC50 refers to the midpoint of the concentration-response curve.

This test concerns the target oxMIF (recombinant human MIF immobilized into microwell plates, transforming MIF to oxMIF) (human) (UniProt P14174). In words: ELISA on immobilized MIF (oxMIF), protein L-HRP detection, mean of triplicate. In general terms: ELISA stands for enzyme-linked immunosorbent assay.

Sequence of oxMIF (recombinant human MIF immobilized into microwell plates, transforming MIF to oxMIF) (human) (P14174 2-115 limits assumed): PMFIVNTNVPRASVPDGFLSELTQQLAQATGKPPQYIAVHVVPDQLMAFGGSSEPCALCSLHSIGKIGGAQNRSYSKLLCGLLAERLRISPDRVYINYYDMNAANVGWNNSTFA

Take “Imalumab (C0008), anti-oxMIF monospecific antibody”: the EC50 stood at 600 pM.
